From US20150147316A1 (Seagen, published 2015)

Assays:
human CD33 [1] = biological target: T1, human CD33 (human, UniProt P20138 18-364); assay: flow cytometry on HEL 92.1.7 cells; competition with 1 nM AlexaFluor-647 m2H12 (methods paragraph 148)
T1 construct: Endogenous on HL-60 and HEL 92.1.7 AML cells, or recombinant on transfected HEK293F cells; The signal peptide is stated as amino acids 1-17; also called hCD33
Protocol: (§1) Cells were centrifuged, washed 3 times with PBS, and resuspended in 125 μL of a PBS+1% BSA solution. Fluorescence was analyzed using a flow cytometer, and the percent of saturated fluorescent signal was used to determine percent labeled 2H12 mAb bound. The EC50 was extrapolated by fitting the data to a sigmoidal dose-response curve with variable slope.
(§2) Humanized heavy and light chains were paired with chimeric light and heavy chains (chimeric chains composed of murine variable regions and human constant regions) respectively. The humanized/chimeric hybrid variants of CD33 mAb were tested for binding to human CD33 expressed on the surface of HEL 92.1.7 AML cells (Table 5). Heavy chains HC and HI were selected for further study. Humanized antibodies were expressed representing permutations of humanized heavy chains HC and HI and humanized light chains LA, LE and LG and binding to cells expressing human or cynomolgus (cyno) CD33 was determined (Table 6). The HILG antibody (2H12 HILG) was selected as the humanized antibody that most closely resembled the binding characteristics of the murine CD33 mAb m2H12. The HILG antibody is referred to as the h2H12 antibody ([…] 2H12 antibody). The KD for m2H12, h2H12, and h2H12 with an S239C mutation (EU numbering) in the IgG1 heavy chain (referred to as h2H12EC, for engineered cysteine), was determined for human CD33 expressed as an endogenous protein in two AML cell lines or as a recombinant protein in a HEK293F cell line. The KD for these antibodies was also determined for cyno CD33 expressed as a recombinant protein in a HEK293F cell line (Table 7).

human CD33 [2] = biological target: T1, human CD33; assay: flow cytometry on HEL 92.1.7 AML cells; competition with 1 nM AlexaFluor-647 m2H12 (methods paragraph 148)
Protocol: as §1, §2

cynomolgus CD33 = biological target: T2, cynomolgus CD33 (cynomolgus); assay: flow cytometry on HEK293F cells expressing cyno CD33; competition with 1 nM AlexaFluor-647 m2H12 (methods paragraph 148)
T2 construct: Recombinant on transfected HEK293F cells; also called cyno CD33; cynoCD33
T2 sequence (chain, as listed by the source limits assumed): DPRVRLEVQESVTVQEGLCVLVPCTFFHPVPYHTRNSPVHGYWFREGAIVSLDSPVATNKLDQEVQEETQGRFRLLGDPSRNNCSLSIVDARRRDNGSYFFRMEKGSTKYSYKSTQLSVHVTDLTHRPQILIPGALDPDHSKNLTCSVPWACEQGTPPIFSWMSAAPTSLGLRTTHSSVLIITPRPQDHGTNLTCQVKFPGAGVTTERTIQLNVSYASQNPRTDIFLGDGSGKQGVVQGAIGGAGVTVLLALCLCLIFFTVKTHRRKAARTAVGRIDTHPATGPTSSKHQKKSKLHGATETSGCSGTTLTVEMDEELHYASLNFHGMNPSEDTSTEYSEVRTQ
Protocol: as §1, §2

human CD33 [3] = biological target: T1, human CD33; assay: flow cytometry on HEK293F cells expressing human CD33; competition with 1 nM AlexaFluor-647 m2H12 (methods paragraph 148)
Protocol: as §1, §2

T1 sequence (P20138 18-364): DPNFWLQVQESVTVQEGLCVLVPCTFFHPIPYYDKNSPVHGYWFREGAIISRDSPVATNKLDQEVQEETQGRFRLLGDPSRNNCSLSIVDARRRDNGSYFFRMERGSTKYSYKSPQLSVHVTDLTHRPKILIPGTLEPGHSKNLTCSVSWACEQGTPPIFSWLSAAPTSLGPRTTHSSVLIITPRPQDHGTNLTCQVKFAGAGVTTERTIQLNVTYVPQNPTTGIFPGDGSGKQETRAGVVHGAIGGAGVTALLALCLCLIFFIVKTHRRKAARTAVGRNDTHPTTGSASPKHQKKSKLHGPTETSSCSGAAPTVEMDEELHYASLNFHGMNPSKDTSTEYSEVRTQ

Binder | EC50 (human CD33 [1]) [nM] | EC50 (human CD33 [2]) [nM] | EC50 (cynomolgus CD33) [nM] | EC50 (human CD33 [3]) [nM]
murine mAb 2H12 (antibody, V domains shown, Murine monoclonal antibody from Balb/c mice; also called m2H12; murine 2H12 antibody) VH: QVQLQQSGPELVRPGTFVKISCKASGYTFTNYDINWVNQRPGQGLEWIGWIYPGDGSTKYNEKFKAKATLTADKSSSTAYLQLNNLTSENSAVYFCASGYEDAMDYWGQGTSVTVSS VL: DIKMTQSPSSMYASLGERVIINCKASQDINSYLSWFQQKPGKSPKTLIYRANRLVDGVPSRFSGSGSGQDYSLTISSLEYEDMGIYYCLQYDEFPLTFGAGTKLELK | 5.4 | 2.38 | 30.6 | 11.6
cHLA (antibody, V domains shown, Hybrid of the chimeric heavy chain (murine VH, human constant region) and humanized light chain LA) VH: QVQLQQSGPELVRPGTFVKISCKASGYTFTNYDINWVNQRPGQGLEWIGWIYPGDGSTKYNEKFKAKATLTADKSSSTAYLQLNNLTSENSAVYFCASGYEDAMDYWGQGTSVTVSS VL: DIQMTQSPSSLSASVGDRVTITCKASQDINSYLSWFQQKPGKAPKSLIYRANRLVDGVPSRFSGSGSGTDFTLTISSLQPEDFATYYCLQYDEFPLTFGGGTKVEIK |  | 2.61 |  | 
cHLE (antibody, V domains shown, Hybrid of the chimeric heavy chain (murine VH, human constant region) and humanized light chain LE) VH: QVQLQQSGPELVRPGTFVKISCKASGYTFTNYDINWVNQRPGQGLEWIGWIYPGDGSTKYNEKFKAKATLTADKSSSTAYLQLNNLTSENSAVYFCASGYEDAMDYWGQGTSVTVSS VL: DIQMTQSPSSLSASVGDRVTITCKASQDINSYLSWFQQKPGKAPKSLIYRANRLVDGVPSRFSGSGSGTDYTLTISSLQPEDFATYYCLQYDEFPLTFGGGTKVEIK |  | 1.95 |  | 
HIcL (antibody, V domains shown, Hybrid of humanized heavy chain HI and the chimeric light chain (murine VL, human constant region)) VH: QVQLVQSGAEVKKPGASVKVSCKASGYTFTNYDINWVRQAPGQGLEWIGWIYPGDGSTKYNEKFKAKATLTADTSTSTAYMELRSLRSDDTAVYYCASGYEDAMDYWGQGTTVTVSS VL: DIKMTQSPSSMYASLGERVIINCKASQDINSYLSWFQQKPGKSPKTLIYRANRLVDGVPSRFSGSGSGQDYSLTISSLEYEDMGIYYCLQYDEFPLTFGAGTKLELK |  | 2.56 |  | 
HCcL (antibody, V domains shown, Hybrid of humanized heavy chain HC and the chimeric light chain (murine VL, human constant region)) VH: QVQLVQSGAEVKKPGASVKVSCKASGYTFTNYDINWVRQAPGQGLEWMGWIYPGDGSTKYNEKFKARVTMTTDTSTSTAYMELRSLRSDDTAVYYCASGYEDAMDYWGQGTTVTVSS VL: DIKMTQSPSSMYASLGERVIINCKASQDINSYLSWFQQKPGKSPKTLIYRANRLVDGVPSRFSGSGSGQDYSLTISSLEYEDMGIYYCLQYDEFPLTFGAGTKLELK |  | 2.95 |  | 
cHLB (antibody, V domains shown, Hybrid of the chimeric heavy chain (murine VH, human constant region) and humanized light chain LB) VH: QVQLQQSGPELVRPGTFVKISCKASGYTFTNYDINWVNQRPGQGLEWIGWIYPGDGSTKYNEKFKAKATLTADKSSSTAYLQLNNLTSENSAVYFCASGYEDAMDYWGQGTSVTVSS VL: DIKMTQSPSSLSASVGDRVTITCKASQDINSYLSWFQQKPGKAPKSLIYRANRLVDGVPSRFSGSGSGTDFTLTISSLQPEDFATYYCLQYDEFPLTFGGGTKVEIK |  | 2.53 |  | 
HILE (antibody, V domains shown, Humanized antibody, heavy chain HI with light chain LE) VH: QVQLVQSGAEVKKPGASVKVSCKASGYTFTNYDINWVRQAPGQGLEWIGWIYPGDGSTKYNEKFKAKATLTADTSTSTAYMELRSLRSDDTAVYYCASGYEDAMDYWGQGTTVTVSS VL: DIQMTQSPSSLSASVGDRVTITCKASQDINSYLSWFQQKPGKAPKSLIYRANRLVDGVPSRFSGSGSGTDYTLTISSLQPEDFATYYCLQYDEFPLTFGGGTKVEIK | 11.1 |  | 64.8 | 19.3
HCLG (antibody, V domains shown, Humanized antibody, heavy chain HC with light chain LG) VH: QVQLVQSGAEVKKPGASVKVSCKASGYTFTNYDINWVRQAPGQGLEWMGWIYPGDGSTKYNEKFKARVTMTTDTSTSTAYMELRSLRSDDTAVYYCASGYEDAMDYWGQGTTVTVSS VL: DIQMTQSPSSLSASVGDRVTINCKASQDINSYLSWFQQKPGKAPKTLIYRANRLVDGVPSRFSGSGSGQDYTLTISSLQPEDFATYYCLQYDEFPLTFGGGTKVEIK | 7.9 |  | 63 | 17.9
HCLA (antibody, V domains shown, Humanized antibody, heavy chain HC with light chain LA) VH: QVQLVQSGAEVKKPGASVKVSCKASGYTFTNYDINWVRQAPGQGLEWMGWIYPGDGSTKYNEKFKARVTMTTDTSTSTAYMELRSLRSDDTAVYYCASGYEDAMDYWGQGTTVTVSS VL: DIQMTQSPSSLSASVGDRVTITCKASQDINSYLSWFQQKPGKAPKSLIYRANRLVDGVPSRFSGSGSGTDFTLTISSLQPEDFATYYCLQYDEFPLTFGGGTKVEIK | 13.6 |  | 141 | 31.7
HCLE (antibody, V domains shown, Humanized antibody, heavy chain HC with light chain LE) VH: QVQLVQSGAEVKKPGASVKVSCKASGYTFTNYDINWVRQAPGQGLEWMGWIYPGDGSTKYNEKFKARVTMTTDTSTSTAYMELRSLRSDDTAVYYCASGYEDAMDYWGQGTTVTVSS VL: DIQMTQSPSSLSASVGDRVTITCKASQDINSYLSWFQQKPGKAPKSLIYRANRLVDGVPSRFSGSGSGTDYTLTISSLQPEDFATYYCLQYDEFPLTFGGGTKVEIK | 12.8 |  | 129 | 22.2

Further lines, results first:

EC50 (human CD33 [1]) [nM] | EC50 (human CD33 [2]) [nM] | EC50 (cynomolgus CD33) [nM] | EC50 (human CD33 [3]) [nM] | Binder
 | 1.97 |  |  | c2H12 (antibody, V domains shown, also called chimeric 2H12) VH: QVQLQQSGPELVRPGTFVKISCKASGYTFTNYDINWVNQRPGQGLEWIGWIYPGDGSTKYNEKFKAKATLTADKSSSTAYLQLNNLTSENSAVYFCASGYEDAMDYWGQGTSVTVSS VL: DIKMTQSPSSMYASLGERVIINCKASQDINSYLSWFQQKPGKSPKTLIYRANRLVDGVPSRFSGSGSGQDYSLTISSLEYEDMGIYYCLQYDEFPLTFGAGTKLELK
 | 2.48 |  |  | cHLD (antibody, V domains shown, Hybrid of the chimeric heavy chain (murine VH, human constant region) and humanized light chain LD) VH: QVQLQQSGPELVRPGTFVKISCKASGYTFTNYDINWVNQRPGQGLEWIGWIYPGDGSTKYNEKFKAKATLTADKSSSTAYLQLNNLTSENSAVYFCASGYEDAMDYWGQGTSVTVSS VL: DIQMTQSPSSLSASVGDRVTITCKASQDINSYLSWFQQKPGKAPKSLIYRANRLVDGVPSRFSGSGSGQDFTLTISSLQPEDFATYYCLQYDEFPLTFGGGTKVEIK
 | 2.49 |  |  | cHLC (antibody, V domains shown, Hybrid of the chimeric heavy chain (murine VH, human constant region) and humanized light chain LC) VH: QVQLQQSGPELVRPGTFVKISCKASGYTFTNYDINWVNQRPGQGLEWIGWIYPGDGSTKYNEKFKAKATLTADKSSSTAYLQLNNLTSENSAVYFCASGYEDAMDYWGQGTSVTVSS VL: DIQMTQSPSSLSASVGDRVTITCKASQDINSYLSWFQQKPGKAPKTLIYRANRLVDGVPSRFSGSGSGTDFTLTISSLQPEDFATYYCLQYDEFPLTFGGGTKVEIK
 | 1.91 |  |  | cHLG (antibody, V domains shown, Hybrid of the chimeric heavy chain (murine VH, human constant region) and humanized light chain LG) VH: QVQLQQSGPELVRPGTFVKISCKASGYTFTNYDINWVNQRPGQGLEWIGWIYPGDGSTKYNEKFKAKATLTADKSSSTAYLQLNNLTSENSAVYFCASGYEDAMDYWGQGTSVTVSS VL: DIQMTQSPSSLSASVGDRVTINCKASQDINSYLSWFQQKPGKAPKTLIYRANRLVDGVPSRFSGSGSGQDYTLTISSLQPEDFATYYCLQYDEFPLTFGGGTKVEIK
 | 2.02 |  |  | cHLF (antibody, V domains shown, Hybrid of the chimeric heavy chain (murine VH, human constant region) and humanized light chain LF) VH: QVQLQQSGPELVRPGTFVKISCKASGYTFTNYDINWVNQRPGQGLEWIGWIYPGDGSTKYNEKFKAKATLTADKSSSTAYLQLNNLTSENSAVYFCASGYEDAMDYWGQGTSVTVSS VL: DIQMTQSPSSLSASVGDRVIINCKASQDINSYLSWFQQKPGKAPKSLIYRANRLVDGVPSRFSGSGSGTDFTLTISSLQPEDFATYYCLQYDEFPLTFGGGTKVEIK
7.8 | 3.39 | 39.9 | 14.4 | h2H12 antibody (2H12 HILG) (antibody, V domains shown, also called humanized 2H12; human 2H12 antibody) VH: QVQLVQSGAEVKKPGASVKVSCKASGYTFTNYDINWVRQAPGQGLEWIGWIYPGDGSTKYNEKFKAKATLTADTSTSTAYMELRSLRSDDTAVYYCASGYEDAMDYWGQGTTVTVSS VL: DIQMTQSPSSLSASVGDRVTINCKASQDINSYLSWFQQKPGKAPKTLIYRANRLVDGVPSRFSGSGSGQDYTLTISSLQPEDFATYYCLQYDEFPLTFGGGTKVEIK
12.2 |  | 126 | 26.8 | HILA (antibody, V domains shown, Humanized antibody, heavy chain HI with light chain LA) VH: QVQLVQSGAEVKKPGASVKVSCKASGYTFTNYDINWVRQAPGQGLEWIGWIYPGDGSTKYNEKFKAKATLTADTSTSTAYMELRSLRSDDTAVYYCASGYEDAMDYWGQGTTVTVSS VL: DIQMTQSPSSLSASVGDRVTITCKASQDINSYLSWFQQKPGKAPKSLIYRANRLVDGVPSRFSGSGSGTDFTLTISSLQPEDFATYYCLQYDEFPLTFGGGTKVEIK
